This data set deals with Nsp9 (SARS-CoV-2, UniProt P0DTD1 4141-4253). Briefly: EMSA. Conditions: protein: recombinant; tags: C-terminal […]; (pET21b); chain copies: 2; label: 5' biotin; single strand.

B1: dT45 (ssDNA)
DNA: TTTTTTTTTTTTTTTTTTTTTTTTTTTTTTTTTTTTTTTTTTTTT
Take B1: the “apparent K (half saturation)” value was determined as 33.5 ± 2.5 µM.
